Results published in the supplement of paper PMC11246515.
± gives the standard deviation of the averaged measurements.

Assay: total protein half-life in vivo (active degradation + dilution); higher = more stable protein
[1] = E. coli NCM3722 delta-clpP delta-lon delta-hslV, growth: N-lim chemostat, doubling time 6 h
[2] = E. coli NCM3722 delta-clpP, growth: N-lim chemostat, doubling time 6 h
[3] = E. coli NCM3722 delta-hslV, growth: N-lim chemostat, doubling time 6 h
[4] = E. coli NCM3722 delta-lon, growth: N-lim chemostat, doubling time 6 h
[5] = E. coli NCM3722 delta-smpB, growth: N-lim chemostat, doubling time 6 h
[6] = wild type E. coli NCM3722, growth: C-lim chemostat, doubling time 3 h
[7] = wild type E. coli NCM3722, growth: C-lim chemostat, doubling time 6 h
[8] = wild type E. coli NCM3722, growth: C-lim chemostat, doubling time 12 h
[9] = wild type E. coli NCM3722, growth: N-lim chemostat, doubling time 6 h
[10] = wild type E. coli NCM3722, growth: N-lim chemostat, doubling time 12 h
[11] = wild type E. coli NCM3722, growth: P-lim chemostat, doubling time 6 h
[12] = wild type E. coli NCM3722, growth: P-lim chemostat, doubling time 12 h

Sequence	total protein half-life in vivo [1]	total protein half-life in vivo [2]	total protein half-life in vivo [3]	total protein half-life in vivo [4]	total protein half-life in vivo [5]	total protein half-life in vivo [6]	total protein half-life in vivo [7]	total protein half-life in vivo [8]	total protein half-life in vivo [9]	total protein half-life in vivo [10]	total protein half-life in vivo [11]	total protein half-life in vivo [12]
MNLHEYQAKQLFARYGLPAPVGYACTTPREAEEAASKIGAGPWVVKCQVHAGGRGKAGGVKVVNSKEDIRAFAENWLGKRLVTYQTDANGQPVNQILVEAATDIAKELYLGAVVDRSSRRVVFMASTEGGVEIEKVAEETPHLIHKVALDPLTGPMPYQGRELAFKLGLEGKLVQQFTKIFMGLATIFLERDLALIEINPLVITKQGDLICLDGKLGADGNALFRQPDLREMRDQSQEDPREAQAAQWELNYVALDGNIGCMVNGAGLAMGTMDIVKLHGGEPANFLDVGGGATKERVTEAFKIILSDDKVKAVLVNIFGGIVRCDLIADGIIGAVAEVGVNVPVVVRLEGNNAELGAKKLADSGLNIIAAKGLTDAAQQVVAAVEGK [P0A836]	4.73 ± 0.42 h	4.59 ± 0.34 h	4.45 ± 0.2 h	4.87 ± 0.23 h	4.18 ± 0.058 h	3.08 ± 0.061 h	5.79 ± 0.26 h	10.5 ± 1.7 h	4.46 ± 0.14 h	7.39 ± 0.36 h	5.95 ± 0.15 h	12.2 ± 1.2 h
MNLLIDNWIPVRPRNGGKVQIINLQSLYCSRDQWRLSLPRDDMELAALALLVCIGQIIAPAKDDVEFRHRIMNPLTEDEFQQLIAPWIDMFYLNHAEHPFMQTKGVKANDVTPMEKLLAGVSGATNCAFVNQPGQGEALCGGCTAIALFNQANQAPGFGGGFKSGLRGGTPVTTFVRGIDLRSTVLLNVLTLPRLQKQFPNESHTENQPTWIKPIKSNESIPASSIGFVRGLFWQPAHIELCDPIGIGKCSCCGQESNLRYTGFLKEKFTFTVNGLWPHPHSPCLVTVKKGEVEEKFLAFTTSAPSWTQISRVVVDKIIQNENGNRVAAVVNQFRNIAPQSPLELIMGGYRNNQASILERRHDVLMFNQGWQQYGNVINEIVTVGLGYKTALRKALYTFAEGFKNKDFKGAGVSVHETAERHFYRQSELLIPDVLANVNFSQADEVIADLRDKLHQLCEMLFNQSVAPYAHHPKLISTLALARATLYKHLRELKPQGGPSNG	5.99 ± 0.51 h	–	–	–	2.728 ± 0.0011 h	–	3.27 h	6.24 h	–	–	2.97 h	6.78 ± 1.8 h
MNLLKSLAAVSSMTMFSRVLGFARDAIVARIFGAGMATDAFFVAFKLPNLLRRIFAEGAFSQAFVPILAEYKSKQGEDATRVFVSYVSGLLTLALAVVTVAGMLAAPWVIMVTAPGFADTADKFALTSQLLKITFPYILLISLASLVGAILNTWNRFSIPAFAPTLLNISMIGFALFAAPYFNPPVLALAWAVTVGGVLQLVYQLPHLKKIGMLVLPRINFHDAGAMRVVKQMGPAILGVSVSQISLIINTIFASFLASGSVSWMYYADRLMEFPSGVLGVALGTILLPSLSKSFASGNHDEYNRLMDWGLRLCFLLALPSAVALGILSGPLTVSLFQYGKFTAFDALMTQRALIAYSVGLIGLIVVKVLAPGFYSRQDIKTPVKIAIVTLILTQLMNLAFIGPLKHAGLSLSIGLAACLNASLLYWQLRKQKIFTPQPGWMAFLLRLVVAVLVMSGVLLGMLHIMPEWSLGTMPWRLLRLMAVVLAGIAAYFAALAVLGFKVKEFARRTV [P0AF16]	6.51 ± 0.41 h	5.82 ± 0.39 h	5.87 h	–	6.21 ± 0.26 h	3.36 h	–	9.84 h	–	8.94 ± 1.4 h	5.63 ± 0.54 h	10.6 ± 0.34 h
MNLQHHFLIAMPALQDPIFRRSVVYICEHNTNGAMGIIVNKPLENLKIEGILEKLKITPEPRDESIRLDKPVMLGGPLAEDRGFILHTPPSNFASSIRISDNTVMTTSRDVLETLGTDKQPSDVLVALGYASWEKGQLEQEILDNAWLTAPADLNILFKTPIADRWREAAKLIGVDILTMPGVAGHA [P0A8W5]	4.47 ± 0.45 h	5.88 ± 1.8 h	4.32 ± 0.34 h	2.88 ± 0.18 h	4.027 ± 0.034 h	2.93 ± 0.32 h	5.38 ± 0.81 h	8.21 ± 0.33 h	4.39 ± 0.34 h	6.81 ± 0.54 h	5.075 ± 0.018 h	10.2 ± 2.2 h
MNLSLRRSTSALLASSLLLTIGRGATLPFMTIYLSRQYSLSVDLIGYAMTIALTIGVVFSLGFGILADKFDKKRYMLLAITAFASGFIAITLVNNVTLVVLFFALINCAYSVFATVLKAWFADNLSSTSKTKIFSINYTMLNIGWTIGPPLGTLLVMQSINLPFWLAAICSAFPMLFIQIWVKRSEKIIATETGSVWSPKVLLQDKALLWFTCSGFLASFVSGAFASCISQYVMVIADGDFAEKVVAVVLPVNAAMVVTLQYSVGRRLNPANIRALMTAGTLCFVIGLVGFIFSGNSLLLWGMSAAVFTVGEIIYAPGEYMLIDHIAPPEMKASYFSAQSLGWLGAAINPLVSGVVLTSLPPSSLFVILALVIIAAWVLMLKGIRARPWGQPALC	–	–	–	–	–	1.77 h	–	–	–	–	–	–
MNLSTKQKQHLKGLAHPLKPVVLLGSNGLTEGVLAEIEQALEHHELIKVKIATEDRETKTLIVEAIVRETGACNVQVIGKTLVLYRPTKERKISLPR [P0AGK4]	7 ± 0.84 h	5.91 ± 0.59 h	6.12 ± 0.24 h	6.47 ± 0.075 h	5.7 ± 0.41 h	3.11 ± 0.53 h	5.73 ± 0.12 h	9.46 ± 1.2 h	4.83 ± 0.25 h	10.8 ± 2.1 h	4.88 ± 1.1 h	12.6 ± 3 h
MNLTLTRRLWMGFALMALLTLTSTLVGWYNLRFISQVEKDNTQALIPTMNMARQLSEASAWELFAAQNLTSADNEKMWQAQGRMLTAQSLKINALLQALREQGFDTTAIEQQEQEISRSLRQQGELVGQRLQLRQQQQQLSQQIVAAADEIARLAQGQANNATTSAGATQAGIYDLIEQDQRQAAESALDRLIDIDLEYVNQMNELRLSALRVQQMVMNLGLEQIQKNAPTLEKQLNNAVKILQRRQIRIEDPGVRAQVATTLTTVSQYSDLLALYQQDSEISNHLQTLAQNNIAQFAQFSSEVSQLVDTIELRNQHGLAHLEKASARGQYSLLLLGMVSLCALILILWRVVYRSVTRPLAEQTQALQRLLDGDIDSPFPETAGVRELDTIGRLMDAFRSNVHALNRHREQLAAQVKARTAELQELVIEHRQARAEAEKASQAKSAFLAAMSHEIRTPLYGILGTAQLLADNPALNAQRDDLRAITDSGESLLTILNDILDYSAIEAGGKNVSVSDEPFEPRPLLESTLQLMSGRVKGRPIRLATAIADDMPCALMGDPRRIRQVITNLLSNALRFTDEGYIILRSRTDGEQWLVEVEDSGCGIDPAKLAEIFQPFVQVSGKRGGTGLGLTISSRLAQAMGGELSATSTPEVGSCFCLRLPLRVATAPVPKTVNQAVRLDGLRLLLIEDNPLTQRITIEMLKTSGAQIVAVGNAAQALETLQNSEPFAAALVDFDLPDIDGITLARQLAQQYPSLVLIGFSAHVIDETLRQRTSSLFRGIIPKPVPREVLGQLLAHYLQLQVNNDQSLDVSQLNEDAQLMGTEKIHEWLVLFTQHALPLLDEIDIARASQDSEKIKRAAHQLKSSCSSLGMHIASQLCAQLEQQPLSAPLPHEEITRSVAALEAWLHKKDLNAI	3.75 h	4.08 h	–	4.54 ± 0.12 h	4.12 ± 0.42 h	2.81 h	–	6.76 h	5.462 ± 0.037 h	> 16 h	6.79 ± 1.1 h	10.3 ± 0.94 h
MNLWQQNYDPAGNIWLSSLIASLPILFFFFALIKLKLKGYVAASWTVAIALAVALLFYKMPVANALASVVYGFFYGLWPIAWIIIAAVFVYKISVKTGQFDIIRSSILSITPDQRLQMLIVGFCFGAFLEGAAGFGAPVAITAALLVGLGFKPLYAAGLCLIVNTAPVAFGAMGIPILVAGQVTGIDSFEIGQMVGRQLPFMTIIVLFWIMAIMDGWRGIKETWPAVVVAGGSFAIAQYLSSNFIGPELPDIISSLVSLLCLTLFLKRWQPVRVFRFGDLGASQVDMTLAHTGYTAGQVLRAWTPFLFLTATVTLWSIPPFKALFASGGALYEWVINIPVPYLDKLVARMPPVVSEATAYAAVFKFDWFSATGTAILFAALLSIVWLKMKPSDAISTFGSTLKELALPIYSIGMVLAFAFISNYSGLSSTLALALAHTGHAFTFFSPFLGWLGVFLTGSDTSSNALFAALQATAAQQIGVSDLLLVAANTTGGVTGKMISPQSIAIACAAVGLVGKESDLFRFTVKHSLIFTCIVGVITTLQAYVLTWMIP	–	–	–	–	–	1.79 h	1.93 h	2.6 ± 0.12 h	–	–	–	–
MNMKKLATLVSAVALSATVSANAMAKDTIALVVSTLNNPFFVSLKDGAQKEADKLGYNLVVLDSQNNPAKELANVQDLTVRGTKILLINPTDSDAVGNAVKMANQANIPVITLDRQATKGEVVSHIASDNVLGGKIAGDYIAKKAGEGAKVIELQGIAGTSAARERGEGFQQAVAAHKFNVLASQPADFDRIKGLNVMQNLLTAHPDVQAVFAQNDEMALGALRALQTAGKSDVMVVGFDGTPDGEKAVNDGKLAATIAQLPDQIGAKGVETADKVLKGEKVQAKYPVDLKLVVKQ	3.56 ± 0.29 h	5.92 ± 0.94 h	–	6.39 ± 0.68 h	6.26 ± 0.56 h	3.27 ± 0.035 h	6.14 ± 1.1 h	9.24 ± 0.57 h	6.13 ± 0.6 h	10.9 ± 0.88 h	6.05 ± 0.068 h	11.5 ± 0.92 h
MNMKLKTLFAAAFAVVGFCSTASAVTYPLPTDGSRLVGQNQVITIPEGNTQPLEYFAAEYQMGLSNMMEANPGVDTFLPKGGTVLNIPQQLILPDTVHEGIVINSAEMRLYYYPKGTNTVIVLPIGIGQLGKDTPINWTTKVERKKAGPTWTPTAKMHAEYRAAGEPLPAVVPAGPDNPMGLYALYIGRLYAIHGTNANFGIGLRVSHGCVRLRNEDIKFLFEKVPVGTRVQFIDEPVKATTEPDGSRYIEVHNPLSTTEAQFEGQEIVPITLTKSVQTVTGQPDVDQVVLDEAIKNRSGMPVRLN [P0AAX8]	6.81 ± 1.6 h	5.74 ± 0.27 h	6.22 ± 0.09 h	6.15 ± 0.32 h	6.37 ± 0.75 h	2.9 ± 0.083 h	5.76 ± 0.11 h	11.6 ± 0.4 h	5.98 ± 0.64 h	13.7 ± 1.3 h	5.606 ± 0.037 h	12.3 ± 0.94 h
MNMKTIEDVFIHLLSDTYSAEKQLTRALAKLARATSNEKLSQAFHAHLEETHGQIERIDQVVESESNLKIKRMKCVAMEGLIEEANEVIESTEKNEVRDAALIAAAQKVEHYEIASYGTLATLAEQLGYRKAAKLLKETLEEEKATDIKLTDLAINNVNKKAENKA	5.25 ± 0.25 h	–	5.18 ± 0.69 h	6.51 ± 0.95 h	4.94 ± 0.081 h	3.02 ± 0.13 h	5.04 ± 0.77 h	10.5 ± 1.4 h	4.881 ± 0.03 h	7.99 ± 0.53 h	5.294 ± 0.042 h	10.3 ± 0.62 h
MNMMRIFYIGLSGVGMMFSSMASGNDAGGLQSPACGVVCDPYICVNSDGISPELTRKYLGEKAAENLQSLQGYDPSEFTFANGVFCDVKEKLCRDDRYFGVDGKRSGKINQTTTKMLFMCRE	5.09 ± 1.6 h	5.4 h	6.01 ± 0.28 h	5.64 h	–	2.85 ± 0.51 h	5.52 ± 0.4 h	–	4.42 ± 1.2 h	> 16 h	4.78 ± 0.93 h	–
MNNFNLHTPTRILFGKGAIAGLREQIPHDARVLITYGGGSVKKTGVLDQVLDALKGMDVLEFGGIEPNPAYETLMNAVKLVREQKVTFLLAVGGGSVLDGTKFIAAAANYPENIDPWHILQTGGKEIKSAIPMGCVLTLPATGSESNAGAVISRKTTGDKQAFHSAHVQPVFAVLDPVYTYTLPPRQVANGVVDAFVHTVEQYVTKPVDAKIQDRFAEGILLTLIEDGPKALKEPENYDVRANVMWAATQALNGLIGAGVPQDWATHMLGHELTAMHGLDHAQTLAIVLPALWNEKRDTKRAKLLQYAERVWNITEGSDDERIDAAIAATRNFFEQLGVPTHLSDYGLDGSSIPALLKKLEEHGMTQLGENHDITLDVSRRIYEAAR	–	5.02 ± 0.23 h	4.48 ± 0.25 h	4.949 ± 0.041 h	4.48 ± 0.23 h	3.27 ± 0.089 h	6.48 ± 1 h	11.6 ± 0.92 h	5.22 ± 0.38 h	7.834 ± 0.065 h	5.35 ± 0.47 h	10.2 ± 0.89 h
MNNHFGKGLMAGLKATHADSAVNVTKFCADYKRGFVLGYSHRMYEKTGDRQLSAWEAGILTRRYGLDKEMVMDFFRENNSCSTLRFFMAGYRLEN	4.99 ± 0.16 h	–	–	–	–	–	–	–	–	–	–	–
